Assay results reported in patent US20250129135A1, “Multi-Agonist and Use Thereof” (priority 2021, published 2025).
Starred links: 1 amine or outer side, 2 acyl side, 3 side chain; linkers in the order of their positions; H or OH if unused. Non-standard residues stand in square brackets, D forms with d. Groups on a side chain read outwards from the residue. No end group written: not given here. *: point of attachment. C20 diacid = O=C(O)CCCCCCCCCCCCCCCCCCC(=O)*; γGlu = O=C(O)[C@H](CCC(=O)[*:2])N[*:1]; αMeF = C[C@](N)(Cc1ccccc1)C(=O)O; AEEA = NCCOCCOCC(=O)O; Ac3c = NC1(C(=O)O)CC1; Aib = CC(C)(N)C(=O)O

B1: Compound 15 (peptide)
peptide: YXQGTXTSDYSIFLDKKAQXAFIEFLLESHPSSGAPPPS
modifications: Aib at 2; αMeF at 6; Lys 17 side chain AEEAc-AEEAc-γGlu-CO(CH2)18COOH; Aib at 20; C-terminal amide (NH2)
B2: Compound 33 (peptide)
peptide: YXQGTXTSDYSIXLDKKAQXAFIEFLLESHPSSXHPPXS
modifications: Aib at 2; αMeF at 6; αMeL at 13; Lys 17 side chain AEEAc-AEEAc-γGlu-CO(CH2)18COOH; Aib at 20; Aib at 34; Ac3c at 38; C-terminal amide (NH2)
B3: Compound 16 (peptide)
peptide: YXQGTXTSDYSIFLDKKAQXAFIEFLLEXHPSSGAPPPS
modifications: Aib at 2; αMeF at 6; Lys 17 side chain AEEAc-AEEAc-γGlu-CO(CH2)18COOH; Aib at 20; Aib at 29; C-terminal amide (NH2)
B4: Compound 26 (peptide)
peptide: YXQGTXTSDYSIXLDKKAQXAFIEFLLESHPSSGAPPPS
modifications: Aib at 2; αMeF at 6; αMeL at 13; Lys 17 side chain AEEAc-AEEAc-γGlu-CO(CH2)18COOH; Aib at 20; C-terminal amide (NH2)
B5: Compound 30 (peptide)
peptide: YXQGTXTSDYSIXLDKKAQXAFIEFLLETXPSSGAPPXS
modifications: Aib at 2; αMeF at 6; αMeL at 13; Lys 17 side chain AEEAc-AEEAc-γGlu-CO(CH2)18COOH; Aib at 20; Aib at 30; Ac3c at 38; C-terminal amide (NH2)
B6: Compound 21 (peptide)
peptide: YXQGTXTSDYSIFLDKKAQXAFIEFLLEGGPSSGQPPPS
modifications: Aib at 2; αMeF(2F) at 6; Lys 17 side chain AEEAc-AEEAc-γGlu-CO(CH2)18COOH; Aib at 20; C-terminal amide (NH2)
B7: Compound 27 (peptide)
peptide: YXQGTXTSDYSIXLDKKAQXAFIEYLLESHPSSGAPPPS
modifications: Aib at 2; αMeF at 6; αMeF at 13; Lys 17 side chain AEEAc-AEEAc-γGlu-CO(CH2)18COOH; Aib at 20; C-terminal amide (NH2)
B8: Compound 19 (peptide)
peptide: YXQGTXTSDYSIXLDKKAQXAFIEFLLETGPSSGAPPPS
modifications: Aib at 2; αMeF(2F) at 6; αMeL at 13; Lys 17 side chain AEEAc-AEEAc-γGlu-CO(CH2)18COOH; Aib at 20; C-terminal amide (NH2)
B9: Compound 20 (peptide)
peptide: YXQGTXTSDYSIXLDKKAQXAFIEFLLEXHPSSGAPPPS
modifications: Aib at 2; αMeF(2F) at 6; αMeL at 13; Lys 17 side chain AEEAc-AEEAc-γGlu-CO(CH2)18COOH; Aib at 20; Aib at 29; C-terminal amide (NH2)
B10: Compound 29 (peptide)
peptide: YXQGTXTSDYSIFLDKKAQXAFIEYLLESXPSSGAPPXS
modifications: Aib at 2; αMeF at 6; Lys 17 side chain AEEAc-AEEAc-γGlu-CO(CH2)18COOH; Aib at 20; Aib at 30; Ac3c at 38; C-terminal amide (NH2)
B11: Compound 31 (peptide)
peptide: YXQGTXTSDYSIXLDKKAQXAFIEFLLEXHPSSGAPPXS
modifications: Aib at 2; αMeF(2F) at 6; αMeL at 13; Lys 17 side chain AEEAc-AEEAc-γGlu-CO(CH2)18COOH; Aib at 20; Aib at 29; Ac3c at 38; C-terminal amide (NH2)
B12: Compound 18 (peptide)
peptide: YXQGTXTSDYSIFLDKKAQXAFIEYLLEXHPSSGAPPPS
modifications: Aib at 2; αMeF(2F) at 6; Lys 17 side chain AEEAc-AEEAc-γGlu-CO(CH2)18COOH; Aib at 20; Aib at 29; C-terminal amide (NH2)
B13: Compound 32 (peptide)
peptide: YXQGTXTSDYSIFLDKKAQXAFIEYLLEXHPSSGAPPXS
modifications: Aib at 2; αMeF(2F) at 6; Lys 17 side chain AEEAc-AEEAc-γGlu-CO(CH2)18COOH; Aib at 20; Aib at 29; Ac3c at 38; C-terminal amide (NH2)
B14: Compound 17 (peptide)
peptide: YXQGTXTSDYSIFLDKKAQXAFIEYLLETGPSSGAPPPS
modifications: Aib at 2; αMeF(2F) at 6; Lys 17 side chain AEEAc-AEEAc-γGlu-CO(CH2)18COOH; Aib at 20; C-terminal amide (NH2)
B15: Compound 22 (peptide)
peptide: YXQGTXTSDYSIXLDKKAQXAFIEFLLEGGPSSGQPPPS
modifications: Aib at 2; αMeF(2F) at 6; αMeL at 13; Lys 17 side chain AEEAc-AEEAc-γGlu-CO(CH2)18COOH; Aib at 20; C-terminal amide (NH2)
B16: Compound 2 (peptide)
peptide: YXQGTXTSDYSIXLDKKAQXAFIEYLLETHPSSGAPPXS
modifications: Aib at 2; αMeF at 6; αMeL at 13; Lys 17 side chain AEEAc-AEEAc-γGlu-CO(CH2)18COOH; Aib at 20; Ac3c at 38; C-terminal amide (NH2)
B17: Compound 23 (peptide)
peptide: YXQGTXTSDYSIXLDKKAQXAFIEYLLETGPSSGQPPPS
modifications: Aib at 2; αMeF(2F) at 6; αMeL at 13; Lys 17 side chain AEEAc-AEEAc-γGlu-CO(CH2)18COOH; Aib at 20; C-terminal amide (NH2)
B18: Compound 1 (peptide)
peptide: YXQGTXTSDYSIXLDKKAQXAFIEYLLETGPSSGAPPXS
modifications: Aib at 2; αMeF at 6; αMeL at 13; Lys 17 side chain AEEAc-AEEAc-γGlu-CO(CH2)18COOH; Aib at 20; Ac3c at 38; C-terminal amide (NH2)
B19: Compound 35 (peptide)
peptide: YXQGTXTSDYSIXLDKKAQXAFIEYLLETGPSSGQPPXS
modifications: Aib at 2; αMeF at 6; αMeL at 13; Lys 17 side chain AEEAc-AEEAc-γGlu-CO(CH2)18COOH; Aib at 20; Ac3c at 38; C-terminal amide (NH2)
B20: Compound 38 (peptide)
peptide: YXQGTXTSDYSIXLDKKAQXAFIEFLLETGPSSXHPPPS
modifications: Aib at 2; αMeF(2F) at 6; αMeL at 13; Lys 17 side chain AEEAc-AEEAc-γGlu-CO(CH2)18COOH; Aib at 20; Aib at 34; C-terminal amide (NH2)
B21: Compound 34 (peptide)
peptide: YXQGTXTSDYSIXLDKKAQXAFIEYLLETGPSSGQPPXS
modifications: Aib at 2; αMeF(2F) at 6; αMeL at 13; Lys 17 side chain AEEAc-AEEAc-γGlu-CO(CH2)18COOH; Aib at 20; Ac3c at 38; C-terminal amide (NH2)
B22: Compound 28 (peptide)
peptide: Y[Aib]QGT[αMeF]TSDYSIXLDKK([AEEA-AEEA-γGlu-C20 diacid])AQ[Aib]AFIEFLLES[Aib]PSSGAPP[Ac3c]S-NH2
modifications: not fully specified (residue 13); printed as Y-Aib-QGT-αMeF-TSDYSI-αMeF-LDKK(AEEAc-AEEAc-γGlu-CO(CH2)18COOH)AQ-Aib-AFIEFLLES-Aib-PSSGAPP-Ac3c-S-NH2
B23: Compound 25 (peptide)
peptide: YXQGTXTSDYSIXLDKKAQXAFIEFLLEGRPSSXHPPPS
modifications: Aib at 2; αMeF(2F) at 6; αMeL at 13; Lys 17 side chain AEEAc-AEEAc-γGlu-CO(CH2)18COOH; Aib at 20; Aib at 34; C-terminal amide (NH2)

What was measured:
Test in all cases: cell-based or functional assay
human GCG receptor = human GCG receptor (human, UniProt P47871 26-477)
human GCG receptor, sequence (P47871 26-477): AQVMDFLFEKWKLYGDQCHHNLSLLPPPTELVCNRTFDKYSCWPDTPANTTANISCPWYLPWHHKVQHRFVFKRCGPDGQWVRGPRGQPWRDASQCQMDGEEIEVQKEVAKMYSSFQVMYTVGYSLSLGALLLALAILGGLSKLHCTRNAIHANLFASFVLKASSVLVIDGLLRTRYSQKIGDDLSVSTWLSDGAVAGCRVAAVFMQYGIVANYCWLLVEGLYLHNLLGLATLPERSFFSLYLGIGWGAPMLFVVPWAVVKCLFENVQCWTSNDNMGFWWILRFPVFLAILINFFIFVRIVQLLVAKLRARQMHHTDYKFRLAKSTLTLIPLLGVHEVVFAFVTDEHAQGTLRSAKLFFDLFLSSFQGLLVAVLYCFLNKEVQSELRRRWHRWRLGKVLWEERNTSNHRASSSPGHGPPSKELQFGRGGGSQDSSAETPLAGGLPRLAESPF

human GIP receptor = target: T1, human GIP receptor (human, UniProt P48546 22-466)
T1 sequence (looked up): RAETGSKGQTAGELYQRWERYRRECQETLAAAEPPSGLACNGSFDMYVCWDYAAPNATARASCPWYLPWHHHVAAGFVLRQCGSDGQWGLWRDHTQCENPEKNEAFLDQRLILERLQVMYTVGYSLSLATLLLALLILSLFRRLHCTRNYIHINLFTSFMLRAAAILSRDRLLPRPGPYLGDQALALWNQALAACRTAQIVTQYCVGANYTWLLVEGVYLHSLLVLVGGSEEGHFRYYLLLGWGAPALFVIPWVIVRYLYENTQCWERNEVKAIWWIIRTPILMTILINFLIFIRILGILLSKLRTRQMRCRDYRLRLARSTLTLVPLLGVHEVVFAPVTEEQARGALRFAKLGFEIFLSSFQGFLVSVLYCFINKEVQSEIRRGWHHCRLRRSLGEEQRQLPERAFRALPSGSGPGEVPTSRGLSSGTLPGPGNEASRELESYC

human GLP-1 receptor = human GLP-1 receptor (human, UniProt P43220 24-463)

Binder | cAMP Rel. A (%) against human GCG, human GCG R cells (human GCG receptor) [%] | cAMP Rel. A (%) against human GIP, human GIP R cells (human GIP receptor) [%] | cAMP EC50, HEK-293 cells stably overexpressing human GLP-1 R (human GLP-1 receptor) [nM] | cAMP Rel. A (%) against human GLP-1 (7-37), human GLP-1 R cells (human GLP-1 receptor) [%] | cAMP EC50, HEK-293 cells stably overexpressing human GCG R (human GCG receptor) [nM] | cAMP EC50, CHO cells stably overexpressing human GIP R (human GIP receptor) [nM]
B1 | 41 | 548 | 0.023 | 191 | – | –
B2 | 36.8 | 2260 | 0.019 | 232 | 0.155 | 0.008
B3 | 33.9 | 335 | 0.02 | 220 | – | –
B4 | 43.9 | 2590 | 0.022 | 200 | – | 0.007
B5 | 33 | 1210 | 0.02 | 220 | 0.173 | 0.015
B6 | 228 | 2260 | 0.005 | 880 | 0.025 | 0.008
B7 | 96.6 | 787 | 0.016 | 275 | – | 0.023
B8 | 197 | 2260 | 0.009 | 489 | 0.029 | 0.008
B9 | 248 | 3020 | 0.01 | 440 | – | –
B10 | 82.6 | 58.6 | 0.016 | 275 | 0.069 | 0.309
B11 | 211 | 2010 | 0.012 | 367 | – | –
B12 | 219 | 862 | 0.012 | 367 | 0.026 | 0.021
B13 | 335 | 1650 | 0.014 | 314 | 0.017 | 0.011
B14 | 163 | 953 | 0.011 | 400 | – | –
B15 | 335 | 2590 | – | 733 | 0.017 | 0.007
B16 | 24.6 | 724 | 0.026 | 169 | 0.232 | 0.025
B17 | 228 | 2590 | 0.005 | 880 | 0.025 | 0.007
B18 | 57.6 | 1210 | – | – | – | 0.015
B19 | 65.5 | 2260 | 0.022 | 200 | 0.087 | 0.008
B20 | – | – | – | – | 0.068 | 0.013
B21 | 150 | 3620 | 0.023 | 191 | 0.038 | 0.005
B22 | 37 | 1650 | 0.024 | 183 | 0.154 | 0.011
B23 | 168 | 1390 | 0.031 | 142 | 0.034 | 0.013
